The text below walks through data of US6974798B2, “Treatment of balance impairments” (Genentech, Inc., priority 1995, dated 2005).

Entries after “also recorded” stand apart in the source; their conditions may differ.

For data set [1] the following is noted: cited from earlier work.
In data set [2] the test system is vestibular ganglion neurons (VGNs). The data set can be described thus: VGN survival in dissociated cell culture, serum-free medium, 2 days. Format: cell-based, rat. The following applies: for survival-promoting effect on VGNs: 10 ng/ml added at plating. As to the method:
(§1) The effects of trkB or trkC agonists to enhance neuronal survival was determined using VGNs in cell culture. VGN cell culture was prepared as follows. Vestibular ganglia were dissected from postnatal day 5 (P5) Wistar rats and were incubated in a mixture of 0.125% trypsin and 0.125% collagenase for 25 min at 37° C. The enzyme was inactivated with a mixture of 0.005% soybean trypsin inhibitor (Sigma) and 0.005% DNase (Worthington) before trituration with 0.05% DNase in Eagle's Basal Medium (“BME”). After the undissociated tissues were separated by filtering with a Nylon meshwork (33 μm in pore size), the dissociated cells were preplated on a 35 mm untreated tissue culture dish for 25 min to enrich the neuronal population. Under these experimental procedures, about 3-5% of the cell population were vestibular ganglion neurons (VGNs) as determined by immunocytochemistry with a monoclonal antibody (N52; Boehringer) against neurofilament (200 kd). The cell suspension was finally plated on polylysine (500 μg/ml)laminin (20 μg/ml) coated 16-well LabTek slides in 200 μl of serum-free medium (BME plus serum-free supplement (Sigma I-1884), 1% BSA, 2 mM glutamine, and 5 mg/ml glucose) containing no antibiotics. Cells were plated at a density of 100,000/well.
All human recombinant neurotrophins (obtained from Genentech, Inc.) were added to the cultures at the time of plating.
(§2) Cell counts and data analysis were performed as follows. After 2 days in culture, viable VGNs were identified by labeling with the neurofilament monoclonal antibody N52 and counted using a grid ocular reticule covering an area of 1 mm^2 under a Zeiss Axiophot microscope. For each culture, about 10 randomly selected fields were counted. In these experiments, cell counts were performed in the same way for control cultures. Data were collected from triplet cultures for each of the experimental groups. Data were then normalized as a percentage of the viable VGNs in the control cultures in each of the experiments.
The effect of neurotrophins on cell survival was determined on VGNs which were dissociated from postnatal day 5 (P5) rat vestibular ganglia and plated in defined serum-free medium. Neurofilament protein immunocytochemistry using bright field microscopy was performed in the VGN cultures in serum-free medium in the absence or presence of 10 ng/ml of NT-4/5. In control cultures in serum-free medium without neurotrophins, about 35% of VGNs survived after 2 days. […] The survival-promoting effects of NT-4/5 on cultured VGNs were dose-dependent (FIG. 1).

The test system is the same in data set [3]. As to the kind of experiment: Protection of cultured VGNs from cisplatin neurotoxicity. Format: cell-based, rat. As to conditions: for protective effect against cisplatin neurotoxicity: 1, 2 or 4 μg/ml cisplatin, 10 ng/ml factor, 2 days. As to the method: as §1, §2
(§3) The ability of trkB or trkC agonists to protect neurons from ototoxicity was determined using VGNs in cell culture. […] All human recombinant neurotrophins (Genentech, Inc.) were added to the cultures at the time of plating. To block the effects of the neurotrophins, 1 μg/ml of trkB-IgG or trkC-IgG (kindly provided by Dr. Dave Shelton), specific antagonists for NT-4/5 (and BDNF) or NT-3, respectively (Shelton et al., 1995), was added to some of the experimental cultures at the same time when neurotrophins were added. […] In other experiments, epidermal growth factor (EGF), basic fibroblast growth factor (βFGF) and insulin-like growth factor-1 (IGF-1) were added to the culture at the time of plating at a concentration of 10 ng/ml. […] In these experiments, cell counts were performed in the same way for control cultures.

For data set [4], the target named is trkB receptor (Homo sapiens, UniProt Q16620). The following applies: naturally occurring NGF versus BDNF; cited from earlier work.
The target in data set [5] is trkC receptor (Homo sapiens, UniProt Q16288). As to conditions: cited from earlier work; for trkC binding of NT-3 mutants: relative to NT-3.
Data set [6] deals with vestibular ganglion neurons (VGNs). As to the kind of experiment: Protection of cultured VGNs against gentamicin neurotoxicity. Format: cell-based, rat. The following applies: FIG. 5; for protective effect against gentamicin neurotoxicity: 1, 2 or 3 mg/ml gentamicin, 10 ng/ml factor, 2 days. As to the method:
as §1, §2, §3

The test system is the same in data set [7]. As to the kind of experiment: Blocking of neurotrophin survival-promoting effects by trkB-IgG / trkC-IgG in VGN culture. It is filed as cell-based, rat. As to conditions: for effect on VGN cultures by themselves (without neurotrophin): 1 μg/ml, alone; for effect of trkB-IgG and trkC-IgG together on the effects of NT-4/5 and NT-3: both fusion proteins together. As to the method:
as §1, §2
TrkB-IgG and trkC-IgG have been previously reported to be specific antagonists for NT-4/5 (or BDNF) and NT-3, respectively (Shelton et al., 1995). To confirm that the survival-promoting effects of NT-4/5, BDNF and NT-3 were specific, trkB-IgG or trkC-IgG fusion protein was added to the culture along with NT-4/5, BDNF or NT-3. All human recombinant neurotrophins (Genentech, Inc.) were added to the cultures at the time of plating. To block the effects of the neurotrophins, 1 μg/ml of trkB-IgG or trkC-IgG (kindly provided by Dr. Dave Shelton), specific antagonists for NT-4/5 (and BDNF) or NT-3, respectively (Shelton et al., 1995), was added to some of the experimental cultures at the same time when neurotrophins were added.

[8] abbreviates: culture containing cisplatin, FIG. 4.

Chain of trkC receptor (Q16288 32-839): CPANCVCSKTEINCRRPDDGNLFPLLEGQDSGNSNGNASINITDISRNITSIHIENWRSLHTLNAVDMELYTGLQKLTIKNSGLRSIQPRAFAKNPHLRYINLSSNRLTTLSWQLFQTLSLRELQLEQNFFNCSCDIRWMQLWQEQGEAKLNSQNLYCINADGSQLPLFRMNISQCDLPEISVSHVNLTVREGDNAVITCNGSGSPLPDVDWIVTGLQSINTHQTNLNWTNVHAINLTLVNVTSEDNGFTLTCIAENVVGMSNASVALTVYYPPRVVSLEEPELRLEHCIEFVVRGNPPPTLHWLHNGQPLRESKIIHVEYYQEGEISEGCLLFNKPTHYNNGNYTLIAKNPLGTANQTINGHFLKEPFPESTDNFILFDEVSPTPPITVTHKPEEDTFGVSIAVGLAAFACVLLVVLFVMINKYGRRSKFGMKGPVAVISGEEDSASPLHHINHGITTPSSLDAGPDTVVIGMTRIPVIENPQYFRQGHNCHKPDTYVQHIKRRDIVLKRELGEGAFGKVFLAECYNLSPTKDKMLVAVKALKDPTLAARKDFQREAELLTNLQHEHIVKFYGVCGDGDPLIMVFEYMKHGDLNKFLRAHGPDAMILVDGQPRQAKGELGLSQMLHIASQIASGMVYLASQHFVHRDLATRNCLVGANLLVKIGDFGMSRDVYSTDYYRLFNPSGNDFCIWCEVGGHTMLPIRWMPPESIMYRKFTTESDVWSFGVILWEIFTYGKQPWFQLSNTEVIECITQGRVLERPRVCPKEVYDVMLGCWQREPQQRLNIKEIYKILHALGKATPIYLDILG
Chain of trkB receptor (Q16620 32-822): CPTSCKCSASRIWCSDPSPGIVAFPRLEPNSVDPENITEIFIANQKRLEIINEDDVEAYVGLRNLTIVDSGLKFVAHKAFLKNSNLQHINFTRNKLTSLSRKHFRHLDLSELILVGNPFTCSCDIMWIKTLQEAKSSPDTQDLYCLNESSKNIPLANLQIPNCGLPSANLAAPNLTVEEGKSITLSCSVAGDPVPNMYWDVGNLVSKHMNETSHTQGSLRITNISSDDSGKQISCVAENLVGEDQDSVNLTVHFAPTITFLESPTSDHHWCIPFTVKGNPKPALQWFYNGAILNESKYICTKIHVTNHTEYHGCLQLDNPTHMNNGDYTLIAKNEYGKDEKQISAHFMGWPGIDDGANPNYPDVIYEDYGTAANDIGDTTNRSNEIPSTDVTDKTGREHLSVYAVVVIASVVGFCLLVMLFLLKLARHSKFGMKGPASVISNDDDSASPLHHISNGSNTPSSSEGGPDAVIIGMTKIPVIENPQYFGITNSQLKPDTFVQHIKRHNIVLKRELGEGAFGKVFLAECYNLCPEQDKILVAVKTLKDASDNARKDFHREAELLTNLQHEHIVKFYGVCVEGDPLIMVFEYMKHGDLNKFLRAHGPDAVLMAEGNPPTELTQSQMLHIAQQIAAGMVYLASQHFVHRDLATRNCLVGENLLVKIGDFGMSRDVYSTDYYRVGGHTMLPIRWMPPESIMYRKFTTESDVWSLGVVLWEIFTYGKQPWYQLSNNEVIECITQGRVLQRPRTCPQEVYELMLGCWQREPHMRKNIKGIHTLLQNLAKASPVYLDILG

For `[H]/N=C(/N)N[C@H]1[C@H](O)[C@@H](O)[C@H](O[C@@H]2O[C@@H](C)[C@](O)(C=O)[C@H]2O[C@@H]2O[C@@H](CO)[C@H](O)[C@@H](O)[C@@H]2NC)[C@@H](N/C(N)=N\[H])[C@@H]1O` [streptomycin], the “incidence of vestibular impairment” value in data set [1] (1 gram per day) was 25%. Besides, the “patients displaying some vestibular impairment” value in data set [1] (2 grams daily for 60 to 120 days) is about 75%.
With EGF: epidermal growth factor, the “survival-promoting effect on VGNs” value in data set [2] (2 days, FIG. 2) is listed as “not affected; also recorded: did not produce significant effects”.
The same measure, in the same setting: to IGF-1: insulin-like growth factor-1 belongs “not affected; also recorded: did not produce significant effects”.
As to “NGF: human recombinant nerve growth factor, ligand of trkA”, the “protective effect against cisplatin neurotoxicity” value in data set [3] (FIG. 4) is “no protective effects”. For the same molecule, the “KD at trkB relative to BDNF (fold lower)” value in data set [4] is 500-1000 fold. Further, the “KD at trkC relative to NT-3 (fold lower)” value in data set [5] (naturally occurring NGF versus NT-3) is listed as 500-1000 fold. The “survival-promoting effect on VGNs” value in data set [2] (2 days, FIG. 2) was “did not show any detectable effect; also recorded: did not produce significant effects”. The “protective effect against gentamicin neurotoxicity” value in data set [6] is recorded as “showed no effect”.
For the molecule “R31A: NT-3 mutant with mutation at position R31 to alanine”, the “trkC binding of NT-3 mutants” value in data set [5] was “increased trkC binding”.
As to “trkB-IgG: trkB-IgG fusion protein, specific antagonist for NT-4/5 and BDNF (Shelton et al., 1995)”, in data set [7] (1 μg/ml antagonist, 10 ng/ml BDNF, FIG. 3), the “inhibition of the survival-promoting effect of BDNF” value is “completely abolished; also recorded: inhibit”. For the same molecule, the “inhibition of the survival-promoting effect of NT-4/5” value in data set [7] (1 μg/ml antagonist, 10 ng/ml NT-4/5, FIG. 3) is recorded as “completely abolished; also recorded: inhibit”. For the same molecule, in data set [7], the “effect on VGN cultures by themselves (without neurotrophin)” value was “did not show detectable effects”; the “effect of trkB-IgG and trkC-IgG together on the effects of NT-4/5 and NT-3” value is given as “blocked”.
For the molecule “trkC-IgG: trkC-IgG fusion protein, specific antagonist for NT-3 (Shelton et al., 1995)”, in data set [7] (1 μg/ml antagonist, 10 ng/ml NT-3, FIG. 3), the “inhibition of the survival-promoting effect of NT-3” value was “inhibited the activity of NT-3; also recorded: inhibit”. In addition, in data set [7], the “effect on VGN cultures by themselves (without neurotrophin)” value was “did not show detectable effects”; the “effect of trkB-IgG and trkC-IgG together on the effects of NT-4/5 and NT-3” value is given as “blocked”.
Take βFGF: basic fibroblast growth factor: in data set [2] (2 days, FIG. 2), the “survival-promoting effect on VGNs” value is on record as “not affected; also recorded: did not produce significant effects”.

B1: NT-4/5: human recombinant neurotrophin-4/5 (Genentech, Inc.), ligand of trkB (protein)
chain: GVSETAPASRRGELAVCDAVSGWVTDRRTAVDLRGREVEVLGEVPAAGGSPLRQYFFETRCKADNAEEGGPGAGGGGCRGVDRRHWVSECKAKQSYVRALTAHAQGRVGWRWIRIDTACVCTLLSRTGRA
On to B1, for which the “number of surviving VGNs relative to cisplatin alone and to control” value in data set [3] (1 μg/ml or 2 μg/ml cisplatin, 10 ng/ml neurotrophin) was “higher than the control culture without cisplatin”. In addition, the VGN survival entry in data set [3] (4 μg/ml cisplatin, 10 ng/ml neurotrophin, FIG. 4) is “about 60 % of the survival levels of control cultures in the absence of cisplatin”. Besides, the “protective effect against cisplatin neurotoxicity” value in data set [3] (FIG. 4) is “significantly ameliorated the toxic effects of cisplatin; also recorded: very significant protecting effects at all three doses”. Besides, in data set [3] (setting [8]), the “additive effect, NT-4/5 combined with BDNF, cisplatin culture” value is on record as “no additive effects were observed” and the “additive effect, NT-4/5 combined with NT-3, cisplatin culture” value is “no additive effects were observed”. Besides, the “survival-promoting effect on VGNs” value in data set [2] (2 days, FIG. 2) is “very significant survival promoting effects”. Moreover, in data set [2] (10 ng/ml, FIG. 2), the “additive/synergistic effect on VGN survival, NT-4/5 combined with BDNF” value is “no synergistic effects were observed” and the “additive/synergistic effect on VGN survival, NT-4/5 combined with NT-3” value is listed as “no synergistic effects were observed”. The “survival-promoting effect on VGNs over the dose range” value in data set [2] (NT-4/5 at different concentrations, 2 days, FIG. 1) is given as “dose-dependent; also recorded: very significant survival-promoting effects”. Besides, the “concentration of maximal survival-promoting effect” value in data set [2] (doses from 0.1 to 50 ng/ml examined, FIG. 1) is 10 ng/mL. In data set [6], the “protective effect against gentamicin neurotoxicity” value is listed as “very significant protective effects at all three doses of gentamicin”. For the same molecule, in data set [6] (culture containing gentamicin), the “additive effect, NT-4/5 combined with BDNF, gentamicin culture” value was “no additive effects were observed” and the “additive effect, NT-4/5 combined with NT-3, gentamicin culture” value was “no additive effects were observed”.

B2: E92A: NT-3 mutant with mutation at position E92 to alanine (protein, UniProt P20783 139-257, looked up, variant E92A)
Neurotrophin-3: YAEHKSHRGEYSVCDSESLWVTDKSSAIDIRGHQVTVLGEIKTGNSPVKQYFYETRCKEARPVKNGCRGIDDKHWNSQCKTSQTYVRALTSANNKLVGWRWIRIDTSCVCALSRKIGRT
On to B2, for which the “trkC binding of NT-3 mutants” value in data set [5] was “increased trkC binding”.

B3: NT-3: human recombinant neurotrophin-3, ligand of trkC (protein)
chain: YAEHKSHRGEYSVCDSESLWVTDKSSAIDIRGHQVTVLGEIKTGNSPVKQYFYETRCKEARPVKNGCRGIDDKHWNSQCKTSQTYVRALTSENNKLVGWRWIRIDTSCVSALSRKIGRT
As to B3, in data set [3] (FIG. 4), the “protective effect against cisplatin neurotoxicity” value is reported as “Significant protective, but less potent effects; also recorded: very significant protecting effects at all three doses”. Moreover, the “survival-promoting effect on VGNs” value in data set [2] (2 days, FIG. 2) is “significant effect (p<0.01) but was less potent than NT-4/5 and BDNF; also recorded: very significant survival promoting effects”. In data set [6], the “protective effect against gentamicin neurotoxicity” value is listed as “significantly protective effect; also recorded: very significant protective effects at all three doses of gentamicin”.

B4: BDNF: human recombinant brain-derived neurotrophic factor, ligand of trkB (protein)
chain: HSDPARRGELSVCDSISEWVTAADKKTAVDMSGGTVTVLEKVPVSKGQLKQYFYETKCNPMGYTKEGCRGIDKRHWNSQCRTTQSYVRALTMDSKKRIGWRFIRIDTSCVTLTIKRGR
Turning to B4, the “protective effect against cisplatin neurotoxicity” value in data set [3] (FIG. 4) is “equivalent effectiveness; also recorded: very significant protecting effects at all three doses”. In addition, the “survival-promoting effect on VGNs” value in data set [2] (2 days, FIG. 2) was “equivalent to NT-4/5; also recorded: very significant survival promoting effects”. Also, the “increase in the number of surviving VGNs” value in data set [2] (P5 rat VGNs, 2 days in serum-free medium, versus control culture without neurotrophin) came to 2 fold. The “protective effect against gentamicin neurotoxicity” value in data set [6] is given as “an effect equivalent to NT-4/5; also recorded: very significant protective effects at all three doses of gentamicin”.
